From paper PMC11464762, “AXIN1 boosts antiviral response through IRF3 stabilization and induced phase separation” (Signal Transduction and Targeted Therapy, 2024)

Molecular target: T1, GST-IRF3-IR (GST-tagged IRF3 IR domain) (GST carrier left out. Limits are not printed: the paired constructs IRF3-DP and IRF3-IR are read as DBD + proline-rich region and IAD + C-terminal regulatory (response) region. The IR start at about r)
T1 chain: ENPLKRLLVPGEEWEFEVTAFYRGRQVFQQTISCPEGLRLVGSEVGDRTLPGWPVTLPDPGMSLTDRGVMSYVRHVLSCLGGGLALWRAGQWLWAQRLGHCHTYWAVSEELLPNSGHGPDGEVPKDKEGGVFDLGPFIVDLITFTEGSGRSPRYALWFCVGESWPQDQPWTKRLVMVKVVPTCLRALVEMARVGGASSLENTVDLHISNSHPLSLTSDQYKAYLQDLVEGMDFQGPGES
Assay: ELISA; cell-free; purified GST-IRF3-IR and His-AXIN1-RGS (n = 3); which one was coated is not told
Conditions: both partners purified

- EC50: 1.72 nM
B1: His-AXIN1-RGS (His-tagged AXIN1 RGS domain) (domain or fragment, UniProt O15169 88-211, looked up)
chain: SLHSLLDDQDGISLFRTFLKQEGCADLLDFWFACTGFRKLEPCDSNEEKRLKLARAIYRKYILDNNGIVSRQTKPATKSFIKGCIMKQLIDPAMFDQAQTEIQATMEENTYPSFLKSDIYLEYT
notes: RGS domain of AXIN1; source: purified
